Three molecules from patent US20230025572A1 (published 2023) can be followed below.

First the molecules themselves.
B1: TCR 1367 (TCR, V domains shown)
Valpha: GEDVEQSLFLSVREGDSSVINCTYTDSSSTYLYWYKQEPGAGLQLLTYIFSNMDMKQDQRLTVLLNKKDKHLSLRIADTQTGDSAIYFCAESIGSNSGYALNFGKGTSLLVTP
Vbeta: DVKVTQSSRYLVKRTGEKVFLECVQDMDHENMFWYRQDPGLGLRLIYFSYDVKMKEKGDIPEGYSVSREKKERFSLILESASTNQTSMYLCASRGLAGYEQYFGPGTRLTVT
B2: TCR 1405 (TCR, V domains shown)
Valpha: GENVEQHPSTLSVQEGDSAVIKCTYSDSASNYFPWYKQELGKGPQLIIDIRSNVGEKKDQRIAVTLNKTAKHFSLHITETQPEDSAVYFCAARPNSGNTPLVFGKGTRLSVIA
Vbeta: SAVISQKPSRDICQRGTSLTIQCQVDSQVTMMFWYRQQPGQSLTLIATANQGSEATYESGFVIDKFPISRPNLTFSTLTVSNMSPEDSSIYLCSVEQDTNTGELFFGEGSRLTVL
B3: TCR 1705 (TCR, V domains shown)
Valpha: QKEVEQDPGPLSVPEGAIVSLNCTYSNSAFQYFMWYRQYSRKGPELLMYTYSSGNKEDGRFTAQVDKSSKYISLFIRDSQPSDSATYLCAMSDTGNQFYFGTGTSLTVIP
Vbeta: AAGVIQSPRHLIKEKRETATLKCYPIPRHDTVYWYQQGPGQDPQFLISFYEKMQSDKGSIPDRFSAQQFSDYHSELNMSSLELGDSALYFCASSFRGGGANVLTFGAGSRLTVL

One test has as its target T1, MAGE-A1 peptide on HLA-A*02:01 (human).
T1 peptide: KVLEYVIKV
The experiment in a line: multimer staining.
Turning to B1, the binding result was “recognises”.
For the molecule B2, the binding result is “recognises”.
Consider B3, for which the binding result is “recognises”.

A further test deals with T2, MAGE-B16 peptide on HLA-A*02:01 (human).
T2 peptide: KVLEFVAKV
The experiment in a line: cytokine release. How it is done:
(§1) FIG. 18 T2 cells were loaded with 10-5 mol/l MAGE-A1278 (SEQ ID NO: 11) or the 2 most similar epitopes in the human proteome (MAGE-B16 and MAGE-B5, SEQ ID NOs: 54 and 55, respectively) differing in only 2 amino acids from MAGE-A1278 and co-cultured with TCR modified T cells. Functional response was assessed based on IFNγ production.
Regarding B1, the binding result is on record as “no recognition”.
B2: the binding result was “no recognition”.
With B3, the binding result was “no recognition”.

A further test addresses T3, MAGE-B5 peptide on HLA-A*02:01 (human).
T3 peptide: KVLEYLAKV
Kind of test: cytokine release. How it is done: as §1
As to B1, the binding result is listed as “no recognition”.
As for B2, the binding result is “no recognition”.
For B3, the binding result is listed as “no recognition”.
